Results on five molecules are retold here after patent publication US20140087995A1 (published 2014).

Numbered stars: 1 amine (or outer) side, 2 acyl side, 3 side chain; on linkers, the order of the positions; unused ones are H or OH. Bridge positions count the residues as written; N and C are the ends. * marks the point of attachment. C20 diacid = O=C(O)CCCCCCCCCCCCCCCCCCC(=O)*; γGlu = O=C(O)[C@H](CCC(=O)[*:2])N[*:1]

For assay [1], the target named is T1, rat calcitonin receptor (rat, UniProt P32214 25-516).
T1 construct: whole, on cells; Used as membranes prepared from the transfected cells; also called rCTR; rat calcitonin (a) receptor
T1 sequence (looked up): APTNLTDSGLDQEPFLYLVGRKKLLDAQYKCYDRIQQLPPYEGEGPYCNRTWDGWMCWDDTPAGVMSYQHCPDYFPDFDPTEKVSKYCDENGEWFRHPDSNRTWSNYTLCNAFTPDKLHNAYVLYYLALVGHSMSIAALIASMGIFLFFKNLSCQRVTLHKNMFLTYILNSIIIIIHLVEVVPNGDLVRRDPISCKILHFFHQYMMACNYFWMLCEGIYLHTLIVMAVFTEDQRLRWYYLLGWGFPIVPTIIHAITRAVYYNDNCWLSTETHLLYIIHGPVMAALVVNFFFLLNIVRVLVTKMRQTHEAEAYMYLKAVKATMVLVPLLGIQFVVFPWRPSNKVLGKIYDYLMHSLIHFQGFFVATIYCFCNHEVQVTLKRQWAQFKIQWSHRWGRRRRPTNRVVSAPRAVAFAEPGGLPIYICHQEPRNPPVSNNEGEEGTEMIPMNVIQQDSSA
The assay is described as follows: ratio IC50 rat calcitonin receptor / IC50 rat amylin receptor (Assays VIII and VI).

The target in assay [2] is T1, rat calcitonin receptor. Description: SPA competition with 125I-calcitonin, membranes of BHK cells with rat calcitonin receptor (Assay VIII).
Assay [3] deals with T2, rat amylin receptor (rat calcitonin receptor + rat RAMP 3) (rat, UniProt P32214 25-516; Q9JJ73 23-147).
T2 construct: whole, on cells; Used as membranes prepared from the transfected cells; also called rAmylin-R; rat amylin 3(a) receptor
T2 sequence (looked up) 1: T1 sequence (looked up)
T2 sequence (looked up) 2: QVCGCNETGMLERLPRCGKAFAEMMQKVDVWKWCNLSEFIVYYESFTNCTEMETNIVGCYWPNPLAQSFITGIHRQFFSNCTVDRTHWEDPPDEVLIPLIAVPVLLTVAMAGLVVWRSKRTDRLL
Description: SPA competition with 125I-rat amylin, membranes of BHK cells with rat calcitonin receptor + rat RAMP3 (Assay VI).

Assay [4] deals with T3, human calcitonin receptor (human, UniProt P30988 25-474).
T3 construct: whole, on cells; Used as membranes prepared from the transfected cells (Assay VII); also called hCTR; hCT
T3 sequence (looked up): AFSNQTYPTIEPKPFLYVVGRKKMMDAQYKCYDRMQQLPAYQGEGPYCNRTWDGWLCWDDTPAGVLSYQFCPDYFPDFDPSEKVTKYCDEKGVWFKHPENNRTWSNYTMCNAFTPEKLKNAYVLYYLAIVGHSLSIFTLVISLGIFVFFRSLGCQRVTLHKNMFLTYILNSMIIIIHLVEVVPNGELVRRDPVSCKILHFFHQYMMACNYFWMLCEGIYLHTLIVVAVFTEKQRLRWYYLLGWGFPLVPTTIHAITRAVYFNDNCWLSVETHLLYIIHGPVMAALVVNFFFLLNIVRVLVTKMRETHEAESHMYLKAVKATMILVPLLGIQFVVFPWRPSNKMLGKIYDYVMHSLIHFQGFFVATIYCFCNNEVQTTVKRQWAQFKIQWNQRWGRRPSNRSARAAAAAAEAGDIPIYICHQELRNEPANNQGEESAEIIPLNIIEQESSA
Description: ratio IC50 human calcitonin receptor / IC50 human amylin receptor (Assays VII and V). The gist of the method:
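IC₅₀ values were derived by one-site competition analysis of SPA counts. Cell membranes (35 ng/μL) with SPA beads were incubated with test compounds for 120 min at 25° C in Hepes buffer, pH 7.4, containing CaCl2, MgCl₂, OA and Tween20.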

B1: N^α1-[(4S)-4-carboxy-4-(19-carboxynonadecanoylamino)butanoyl]-[Arg17,Pro21,Pro27,Pro31,Glu35]-h-amylin (peptide)
peptide: {C20 diacid-γGlu}-KCNTATCATQRLANFLRHSSPNFGAIPSSTPVGSETY-NH2
modifications: disulfide 2-7
SMILES: CC[C@H](C)[C@H](NC(=O)[C@H](C)NC(=O)CNC(=O)[C@H](Cc1ccccc1)NC(=O)[C@H](CC(N)=O)NC(=O)[C@@H]1CCCN1C(=O)[C@H](CO)NC(=O)[C@H](CO)NC(=O)[C@H](Cc1c[nH]cn1)NC(=O)[C@H](CCCNC(=N)N)NC(=O)[C@H](CC(C)C)NC(=O)[C@H](Cc1ccccc1)NC(=O)[C@H](CC(N)=O)NC(=O)[C@H](C)NC(=O)[C@H](CC(C)C)NC(=O)[C@H](CCCNC(=N)N)NC(=O)[C@H](CCC(N)=O)NC(=O)[C@@H](NC(=O)[C@H](C)NC(=O)[C@@H]1CSSC[C@H](NC(=O)[C@H](CCCCN)NC(=O)CC[C@H](NC(=O)CCCCCCCCCCCCCCCCCCC(=O)O)C(=O)O)C(=O)N[C@@H](CC(N)=O)C(=O)N[C@@H]([C@@H](C)O)C(=O)N[C@@H](C)C(=O)N[C@@H]([C@@H](C)O)C(=O)N1)[C@@H](C)O)C(=O)N1CCC[C@H]1C(=O)N[C@@H](CO)C(=O)N[C@@H](CO)C(=O)N[C@H](C(=O)N1CCC[C@H]1C(=O)N[C@H](C(=O)NCC(=O)N[C@@H](CO)C(=O)N[C@@H](CCC(=O)O)C(=O)N[C@H](C(=O)N[C@@H](Cc1ccc(O)cc1)C(N)=O)[C@@H](C)O)C(C)C)[C@@H](C)O
notes: Derivative of human amylin; also called compound 28
Consider B1, for which, in the assay with rat calcitonin receptor [1], the “Ratio rCT/rAmylin binding” value is 44.9. Moreover, the IC50 with rat calcitonin receptor [2] is 54.9 nM; in assay [3], 1.22 nM. Moreover, the “Ratio hCT/hAmylin binding” value in assay [4] was found to be 20.5.

B2: N^α1-[(4S)-4-carboxy-4-(19-carboxynonadecanoylamino)butanoyl]-[Arg17,Pro21,Pro27,Pro34,Glu35]-h-amylin (peptide)
peptide: {C20 diacid-γGlu}-KCNTATCATQRLANFLRHSSPNFGAIPSSTNVGPETY-NH2
modifications: disulfide 2-7
SMILES: CC[C@H](C)[C@H](NC(=O)[C@H](C)NC(=O)CNC(=O)[C@H](Cc1ccccc1)NC(=O)[C@H](CC(N)=O)NC(=O)[C@@H]1CCCN1C(=O)[C@H](CO)NC(=O)[C@H](CO)NC(=O)[C@H](Cc1c[nH]cn1)NC(=O)[C@H](CCCNC(=N)N)NC(=O)[C@H](CC(C)C)NC(=O)[C@H](Cc1ccccc1)NC(=O)[C@H](CC(N)=O)NC(=O)[C@H](C)NC(=O)[C@H](CC(C)C)NC(=O)[C@H](CCCNC(=N)N)NC(=O)[C@H](CCC(N)=O)NC(=O)[C@@H](NC(=O)[C@H](C)NC(=O)[C@@H]1CSSC[C@H](NC(=O)[C@H](CCCCN)NC(=O)CC[C@H](NC(=O)CCCCCCCCCCCCCCCCCCC(=O)O)C(=O)O)C(=O)N[C@@H](CC(N)=O)C(=O)N[C@@H]([C@@H](C)O)C(=O)N[C@@H](C)C(=O)N[C@@H]([C@@H](C)O)C(=O)N1)[C@@H](C)O)C(=O)N1CCC[C@H]1C(=O)N[C@@H](CO)C(=O)N[C@@H](CO)C(=O)N[C@H](C(=O)N[C@@H](CC(N)=O)C(=O)N[C@H](C(=O)NCC(=O)N1CCC[C@H]1C(=O)N[C@@H](CCC(=O)O)C(=O)N[C@H](C(=O)N[C@@H](Cc1ccc(O)cc1)C(N)=O)[C@@H](C)O)C(C)C)[C@@H](C)O
notes: Derivative of human amylin; also called compound 29
For the molecule B2, the “Ratio rCT/rAmylin binding” value in the assay with rat calcitonin receptor [1] is 67. The IC50 with rat calcitonin receptor [2] came to 21.6 nM; in assay [3] it was 0.322 nM. Besides, the “Ratio hCT/hAmylin binding” value in assay [4] was 13.9.

B3: N^α1-[(4S)-4-carboxy-4-(19-carboxynonadecanoylamino)butanoyl]-[Glu14,Arg17,Pro21,Pro26,Pro37]-h-amylin (peptide)
peptide: {C20 diacid-γGlu}-KCNTATCATQRLAEFLRHSSPNFGAPLSSTNVGSNTP-NH2
modifications: disulfide 2-7
SMILES: CC(C)C[C@H](NC(=O)[C@H](CCCNC(=N)N)NC(=O)[C@H](CCC(N)=O)NC(=O)[C@@H](NC(=O)[C@H](C)NC(=O)[C@@H]1CSSC[C@H](NC(=O)[C@H](CCCCN)NC(=O)CC[C@H](NC(=O)CCCCCCCCCCCCCCCCCCC(=O)O)C(=O)O)C(=O)N[C@@H](CC(N)=O)C(=O)N[C@@H]([C@@H](C)O)C(=O)N[C@@H](C)C(=O)N[C@@H]([C@@H](C)O)C(=O)N1)[C@@H](C)O)C(=O)N[C@@H](C)C(=O)N[C@@H](CCC(=O)O)C(=O)N[C@@H](Cc1ccccc1)C(=O)N[C@@H](CC(C)C)C(=O)N[C@@H](CCCNC(=N)N)C(=O)N[C@@H](Cc1c[nH]cn1)C(=O)N[C@@H](CO)C(=O)N[C@@H](CO)C(=O)N1CCC[C@H]1C(=O)N[C@@H](CC(N)=O)C(=O)N[C@@H](Cc1ccccc1)C(=O)NCC(=O)N[C@@H](C)C(=O)N1CCC[C@H]1C(=O)N[C@@H](CC(C)C)C(=O)N[C@@H](CO)C(=O)N[C@@H](CO)C(=O)N[C@H](C(=O)N[C@@H](CC(N)=O)C(=O)N[C@H](C(=O)NCC(=O)N[C@@H](CO)C(=O)N[C@@H](CC(N)=O)C(=O)N[C@H](C(=O)N1CCC[C@H]1C(N)=O)[C@@H](C)O)C(C)C)[C@@H](C)O
notes: Derivative of human amylin; also called compound 5
B3: the “Ratio rCT/rAmylin binding” value in the assay with rat calcitonin receptor [1] is 3.6. The IC50 stood at 4.65 nM with rat calcitonin receptor [2] and 1.3 nM in assay [3]. Also, the “Ratio hCT/hAmylin binding” value in assay [4] amounted to 1.4.

B4: N^α1-[(4S)-4-carboxy-4-(19-carboxynonadecanoylamino)butanoyl]-[Glu14,Arg17,Pro21,Pro25,Pro28,Pro29]-h-amylin (peptide)
peptide: {C20 diacid-γGlu}-KCNTATCATQRLAEFLRHSSPNFGPILPPTNVGSNTY-NH2
modifications: disulfide 2-7
SMILES: CC[C@H](C)[C@H](NC(=O)[C@@H]1CCCN1C(=O)CNC(=O)[C@H](Cc1ccccc1)NC(=O)[C@H](CC(N)=O)NC(=O)[C@@H]1CCCN1C(=O)[C@H](CO)NC(=O)[C@H](CO)NC(=O)[C@H](Cc1c[nH]cn1)NC(=O)[C@H](CCCNC(=N)N)NC(=O)[C@H](CC(C)C)NC(=O)[C@H](Cc1ccccc1)NC(=O)[C@H](CCC(=O)O)NC(=O)[C@H](C)NC(=O)[C@H](CC(C)C)NC(=O)[C@H](CCCNC(=N)N)NC(=O)[C@H](CCC(N)=O)NC(=O)[C@@H](NC(=O)[C@H](C)NC(=O)[C@@H]1CSSC[C@H](NC(=O)[C@H](CCCCN)NC(=O)CC[C@H](NC(=O)CCCCCCCCCCCCCCCCCCC(=O)O)C(=O)O)C(=O)N[C@@H](CC(N)=O)C(=O)N[C@@H]([C@@H](C)O)C(=O)N[C@@H](C)C(=O)N[C@@H]([C@@H](C)O)C(=O)N1)[C@@H](C)O)C(=O)N[C@@H](CC(C)C)C(=O)N1CCC[C@H]1C(=O)N1CCC[C@H]1C(=O)N[C@H](C(=O)N[C@@H](CC(N)=O)C(=O)N[C@H](C(=O)NCC(=O)N[C@@H](CO)C(=O)N[C@@H](CC(N)=O)C(=O)N[C@H](C(=O)N[C@@H](Cc1ccc(O)cc1)C(N)=O)[C@@H](C)O)C(C)C)[C@@H](C)O
notes: Derivative of human amylin; also called compound 6
For B4, the “Ratio rCT/rAmylin binding” value with rat calcitonin receptor [1] worked out at 21.7. Further, the values for the IC50 (in the assay with rat calcitonin receptor [2]; in assay [3]) were 51.5 nM and 2.37 nM, respectively. Also, in assay [4], the “Ratio hCT/hAmylin binding” value is 20.

B5: N^α1-[(4S)-4-carboxy-4-(19-carboxynonadecanoylamino)butanoyl]-[Glu14,Arg17,Pro21,Pro25,Pro28,Pro29,Pro37]-h-amylin (peptide)
peptide: {C20 diacid-γGlu}-KCNTATCATQRLAEFLRHSSPNFGPILPPTNVGSNTP-NH2
modifications: disulfide 2-7
SMILES: CC[C@H](C)[C@H](NC(=O)[C@@H]1CCCN1C(=O)CNC(=O)[C@H](Cc1ccccc1)NC(=O)[C@H](CC(N)=O)NC(=O)[C@@H]1CCCN1C(=O)[C@H](CO)NC(=O)[C@H](CO)NC(=O)[C@H](Cc1c[nH]cn1)NC(=O)[C@H](CCCNC(=N)N)NC(=O)[C@H](CC(C)C)NC(=O)[C@H](Cc1ccccc1)NC(=O)[C@H](CCC(=O)O)NC(=O)[C@H](C)NC(=O)[C@H](CC(C)C)NC(=O)[C@H](CCCNC(=N)N)NC(=O)[C@H](CCC(N)=O)NC(=O)[C@@H](NC(=O)[C@H](C)NC(=O)[C@@H]1CSSC[C@H](NC(=O)[C@H](CCCCN)NC(=O)CC[C@H](NC(=O)CCCCCCCCCCCCCCCCCCC(=O)O)C(=O)O)C(=O)N[C@@H](CC(N)=O)C(=O)N[C@@H]([C@@H](C)O)C(=O)N[C@@H](C)C(=O)N[C@@H]([C@@H](C)O)C(=O)N1)[C@@H](C)O)C(=O)N[C@@H](CC(C)C)C(=O)N1CCC[C@H]1C(=O)N1CCC[C@H]1C(=O)N[C@H](C(=O)N[C@@H](CC(N)=O)C(=O)N[C@H](C(=O)NCC(=O)N[C@@H](CO)C(=O)N[C@@H](CC(N)=O)C(=O)N[C@H](C(=O)N1CCC[C@H]1C(N)=O)[C@@H](C)O)C(C)C)[C@@H](C)O
notes: Derivative of human amylin; also called compound 4
For the molecule B5, the “Ratio rCT/rAmylin binding” value with rat calcitonin receptor [1] worked out at 3.1. Moreover, the IC50 with rat calcitonin receptor [2] was 4.05 nM; in assay [3], 1.3 nM. In addition, in assay [4], the “Ratio hCT/hAmylin binding” value is 2.1.
